Test results published in patent US20060281130A1 (ENKAM PHARMACEUTICALS A S, published 2006).
No end group written: not given here.

Tests used:
[1] = target: FGFR on embryonic rat hippocampal neurons (rat); assay: cell-based or functional assay
[2] = target: T1, combined FGFR1 Ig modules 2, 3 (mouse, UniProt P16092 141-365); assay: SPR (BIAcoreX), FGFR Ig modules 2, 3 immobilized on CM5
T1 construct: Expressed in Drosophila S2 cells; immobilized on CM5 chip by amine coupling in the SPR experiments; also called FGFR Ig modules 2, 3; FGFR modules 2, 3
T1 sequence: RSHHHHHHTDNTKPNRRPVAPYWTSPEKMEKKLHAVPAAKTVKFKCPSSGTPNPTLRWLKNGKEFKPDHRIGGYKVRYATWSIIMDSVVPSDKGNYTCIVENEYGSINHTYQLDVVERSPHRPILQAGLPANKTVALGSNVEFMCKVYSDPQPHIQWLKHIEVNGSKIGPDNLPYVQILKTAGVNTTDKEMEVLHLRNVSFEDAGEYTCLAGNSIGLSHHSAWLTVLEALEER

[3] = target: T1, combined FGFR1 Ig modules 2, 3; assay: SPR, FGFR Ig modules 2, 3 immobilized
[4] = target: T1, combined FGFR1 Ig modules 2, 3; assay: SPR, apparent Kd, FGFR Ig modules 2, 3 immobilized

Binder: EVAVVAENQQGASAA [FG loop peptide in which Y74, K83 and K85 were substituted with alanine]
- neurite outgrowth from hippocampal neurons, stimulatory effect relative to the non-mutated peptide [1]: ~60%

Binder: VAENQQGKS [truncated FG loop peptide, nonamer V78-S84 (as printed)]
- neurite outgrowth from hippocampal neurons, stimulatory effect relative to the entire FG loop peptide [1]: ~50%

Binder: AENQQGK [truncated FG loop peptide, heptamer Ala77-K83]
- neurite outgrowth from hippocampal neurons, stimulatory effect relative to the entire FG loop peptide [1]: ~50%

B1: combined NCAM F3 modules 1, 2 (other, rat)
chain: AGHHHHHHQADTPSSPSIDRVEPYSSTAQVQFDEPEATGGVPILKYKAEWKSLGEEAWHSKWYDAKEANMEGIVTIMGLKPETRYAVRLAALNGKGLGEISAATEFKTQPVREPSAPKLEGQMGEDGNSIKVNLIKQDDGGSPIRHYLVKYRALASEWKPEIRLPSGSDHVMLKSLDWNAEYEVYVVAENQQGKSKAAHFVFRTSAQ
notes: range 507-705; Recombinant, expressed in P. pastoris KM71; also called double module protein
- Kd [2]: 9.97 µM
- koff [2]: 0.00556 s⁻¹
- kon [2]: 889 M⁻¹ s⁻¹

B2: dendrimeric FG loop peptide (SEQ ID NO: 1) (peptide)
peptide: EVYVVAENQQGKSKA
modifications: also: tetrameric dendrimer: four peptides joined through their C-termini to a three-lysine backbone
notes: Tetrameric dendrimer on a three-lysine backbone; also called dendrimeric version of the FG loop peptide
- koff [3]: 0.00397 s⁻¹
- kon [3]: 2070 M⁻¹ s⁻¹
- Kd [4]: 2.58 µM
